For this series the following is noted: Escherichia coli (strain K12), whole UniProt chain shown.
Where [1] appears, read: pH 7, Thermal, CD, Potassium phosphate 10 mM.
Setting [2] is: pH 8, 30 °C, GdnHCl, Fluorescence, Tris-HCl 50 mM.

The results in this text go back to FireProtDB (doi:10.1021/bi00236a021).

Where “and” joins values, the source holds several entries; their conditions need not be identical. Equal values may be shown once.

A word on the Tm: it is the temperature at which the thermal transition is half complete.

B1: Glutaredoxin 1 wild type, P68688 (protein)
chain: MQTVIFGRSGCPYCVRAKDLAEKLSNERDDFQYQYVDIRAEGITKEDLQQKAGKPVETVPQIFVDQQHIGGYTDFAAWVKENLDA
B1: the unfolding free energy runs as follows: (pH 7, 25 °C, Thermal, CD, Potassium phosphate 10 mM) 4.7 kcal/mol; (pH 7, 30 °C, Thermal, CD, Potassium phosphate 10 mM) 4.1 kcal/mol and 5 kcal/mol; under setting [2], 4.2 kcal/mol and 6.1 kcal/mol. In addition, the Tm under setting [1] was 55 °C and 57 °C. The “unfolding enthalpy (van 't Hoff)” value under setting [1] is 67 kcal/mol and 75 kcal/mol. Besides, the “denaturant midpoint (higher = more stable)” value under setting [2] came to 2 M.
